Numbered stars: 1 amine (or outer) side, 2 acyl side, 3 side chain; on linkers, the order of the positions; unused ones are H or OH. * marks the point of attachment. C20 diacid = O=C(O)CCCCCCCCCCCCCCCCCCC(=O)*; γGlu = O=C(O)[C@H](CCC(=O)[*:2])N[*:1]
T1: human amylin receptor (human calcitonin receptor + human RAMP3) (human) (UniProt P30988)
T1 sequence (looked up) 1: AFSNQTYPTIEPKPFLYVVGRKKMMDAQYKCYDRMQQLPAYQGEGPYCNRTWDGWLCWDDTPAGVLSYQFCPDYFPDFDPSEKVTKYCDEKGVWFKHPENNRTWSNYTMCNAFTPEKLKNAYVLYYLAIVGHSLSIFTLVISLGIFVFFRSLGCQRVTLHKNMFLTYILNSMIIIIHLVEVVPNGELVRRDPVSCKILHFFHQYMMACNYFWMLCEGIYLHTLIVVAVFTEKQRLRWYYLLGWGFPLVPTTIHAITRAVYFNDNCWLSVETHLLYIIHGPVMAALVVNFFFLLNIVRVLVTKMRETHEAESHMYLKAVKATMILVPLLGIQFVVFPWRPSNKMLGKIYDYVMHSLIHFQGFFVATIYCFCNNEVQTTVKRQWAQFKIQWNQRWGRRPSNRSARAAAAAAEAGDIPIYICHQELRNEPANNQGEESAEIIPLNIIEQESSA
T1 sequence (looked up) 2: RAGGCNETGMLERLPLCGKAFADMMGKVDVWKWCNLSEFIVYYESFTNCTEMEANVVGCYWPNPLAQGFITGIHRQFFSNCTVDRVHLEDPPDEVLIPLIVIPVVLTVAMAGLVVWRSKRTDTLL


Columns and labels:
[1] = target: rat calcitonin receptor (rat) (UniProt P32214); assay: SPA competition vs 125I-calcitonin, membranes with rat CTR (Assay VIII)
[2] = target: rat amylin receptor (rat calcitonin receptor with rat RAMP 3) (rat) (UniProt P32214); assay: SPA competition vs 125I-rat amylin, membranes with rat CTR + rat RAMP3 (Assay VI)
[3] = target: T1, human amylin receptor (human calcitonin receptor + human RAMP3) (human); assay: whole-cell competition vs 125I-rat amylin (Assay Va)

| IC50 [1] [pM] | IC50 [2] [pM] | IC50 [3] [pM] | Binder |
| --- | --- | --- | --- |
| 31 | 26 | 142 | {C20 diacid-γGlu}-ASGLSTAALGRLSQELHELQTYPHTETGSGTY-NH2 (SMILES CC(C)C[C@H](NC(=O)CNC(=O)[C@H](CO)NC(=O)[C@H](C)NC(=O)CC[C@H](NC(=O)CCCCCCCCCCCCCCCCCCC(=O)O)C(=O)O)C(=O)N[C@@H](CO)C(=O)N[C@H](C(=O)N[C@@H](C)C(=O)N[C@@H](C)C(=O)N[C@@H](CC(C)C)C(=O)NCC(=O)N[C@@H](CCCNC(=N)N)C(=O)N[C@@H](CC(C)C)C(=O)N[C@@H](CO)C(=O)N[C@@H](CCC(N)=O)C(=O)N[C@@H](CCC(=O)O)C(=O)N[C@@H](CC(C)C)C(=O)N[C@@H](Cc1c[nH]cn1)C(=O)N[C@@H](CCC(=O)O)C(=O)N[C@@H](CC(C)C)C(=O)N[C@@H](CCC(N)=O)C(=O)N[C@H](C(=O)N[C@@H](Cc1ccc(O)cc1)C(=O)N1CCC[C@H]1C(=O)N[C@@H](Cc1c[nH]cn1)C(=O)N[C@H](C(=O)N[C@@H](CCC(=O)O)C(=O)N[C@H](C(=O)NCC(=O)N[C@@H](CO)C(=O)NCC(=O)N[C@H](C(=O)N[C@@H](Cc1ccc(O)cc1)C(N)=O)[C@@H](C)O)[C@@H](C)O)[C@@H](C)O)[C@@H](C)O)[C@@H](C)O) [[N-terminal(C20 diacid-gGlu), des1, 4G, 15Q, 21Q, 23Y, 25H, 30S, 31G, 32T, 33Y]mimylin] |
| 28 | 98 | 116 | {C20 diacid-γGlu}-ASGLSTATLGRLSQELHELQTYPPTETGSGTY-NH2 (SMILES CC(C)C[C@H](NC(=O)CNC(=O)[C@H](CO)NC(=O)[C@H](C)NC(=O)CC[C@H](NC(=O)CCCCCCCCCCCCCCCCCCC(=O)O)C(=O)O)C(=O)N[C@@H](CO)C(=O)N[C@H](C(=O)N[C@@H](C)C(=O)N[C@H](C(=O)N[C@@H](CC(C)C)C(=O)NCC(=O)N[C@@H](CCCNC(=N)N)C(=O)N[C@@H](CC(C)C)C(=O)N[C@@H](CO)C(=O)N[C@@H](CCC(N)=O)C(=O)N[C@@H](CCC(=O)O)C(=O)N[C@@H](CC(C)C)C(=O)N[C@@H](Cc1c[nH]cn1)C(=O)N[C@@H](CCC(=O)O)C(=O)N[C@@H](CC(C)C)C(=O)N[C@@H](CCC(N)=O)C(=O)N[C@H](C(=O)N[C@@H](Cc1ccc(O)cc1)C(=O)N1CCC[C@H]1C(=O)N1CCC[C@H]1C(=O)N[C@H](C(=O)N[C@@H](CCC(=O)O)C(=O)N[C@H](C(=O)NCC(=O)N[C@@H](CO)C(=O)NCC(=O)N[C@H](C(=O)N[C@@H](Cc1ccc(O)cc1)C(N)=O)[C@@H](C)O)[C@@H](C)O)[C@@H](C)O)[C@@H](C)O)[C@@H](C)O)[C@@H](C)O) [[N-terminal(C20 diacid-gGlu), des1, 4G, 9T, 15Q, 21Q, 23Y, 25P, 30S, 31G, 32T, 33Y]mimylin] |
| 31 | 91 | 1480 | {C20 diacid-γGlu}-ASGLSTLVLGRLSQELHELQTYPRTETGSQTY-NH2 (SMILES CC(C)C[C@H](NC(=O)CNC(=O)[C@H](CO)NC(=O)[C@H](C)NC(=O)CC[C@H](NC(=O)CCCCCCCCCCCCCCCCCCC(=O)O)C(=O)O)C(=O)N[C@@H](CO)C(=O)N[C@H](C(=O)N[C@@H](CC(C)C)C(=O)N[C@H](C(=O)N[C@@H](CC(C)C)C(=O)NCC(=O)N[C@@H](CCCNC(=N)N)C(=O)N[C@@H](CC(C)C)C(=O)N[C@@H](CO)C(=O)N[C@@H](CCC(N)=O)C(=O)N[C@@H](CCC(=O)O)C(=O)N[C@@H](CC(C)C)C(=O)N[C@@H](Cc1c[nH]cn1)C(=O)N[C@@H](CCC(=O)O)C(=O)N[C@@H](CC(C)C)C(=O)N[C@@H](CCC(N)=O)C(=O)N[C@H](C(=O)N[C@@H](Cc1ccc(O)cc1)C(=O)N1CCC[C@H]1C(=O)N[C@@H](CCCNC(=N)N)C(=O)N[C@H](C(=O)N[C@@H](CCC(=O)O)C(=O)N[C@H](C(=O)NCC(=O)N[C@@H](CO)C(=O)N[C@@H](CCC(N)=O)C(=O)N[C@H](C(=O)N[C@@H](Cc1ccc(O)cc1)C(N)=O)[C@@H](C)O)[C@@H](C)O)[C@@H](C)O)[C@@H](C)O)C(C)C)[C@@H](C)O) [[N-terminal(C20 diacid-gGlu), des1, 4G, 8L, 9V, 15Q, 21Q, 23Y, 30S, 31Q, 32T, 33Y]mimylin] |
